Assay results: publication PMC4897735, “Acousto-microfluidics for screening of ssDNA aptamer”

Molecular target: prostate-specific antigen (PSA) (UniProt P07288 25-261)
Experiment: SPR; AS2 3-50 nM, 2 mM MgCl2; SPR (Biacore CM5): PBS pH 7.4, 2 mM MgCl2 (PBSM), 25 °C, 15 µl/min, blank flow cell reference
Settings: protein: commercial

Chain of prostate-specific antigen (PSA) (P07288 25-261): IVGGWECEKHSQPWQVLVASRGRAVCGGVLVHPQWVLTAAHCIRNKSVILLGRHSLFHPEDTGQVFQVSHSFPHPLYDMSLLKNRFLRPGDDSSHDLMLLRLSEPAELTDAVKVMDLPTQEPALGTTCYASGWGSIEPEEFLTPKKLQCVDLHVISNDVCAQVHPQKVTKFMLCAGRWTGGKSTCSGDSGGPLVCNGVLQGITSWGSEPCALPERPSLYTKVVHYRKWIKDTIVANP

B1: AS2 (ssDNA)
DNA: GGGCGGGGCGGACGAGACAGTAAGGGCTGTGGGTGTGGTG
- Kd: 0.7 nM
